Measured values taken from the Immune Epitope Database (IEDB).

Legend:
[1] = target: HLA-A*02:01; assay: IEDB peptide-MHC binding, cellular MHC/competitive/fluorescence; ≥ and ≤ were set here for values at or beyond the usual limits of such assays
[2] = target: HLA-A*02:02; assay: IEDB peptide-MHC binding, purified MHC/competitive/radioactivity; ≥ and ≤ were set here for values at or beyond the usual limits of such assays
[3] = target: HLA-A*02:03; assay: as above
[4] = target: HLA-A*02:06; assay: as above
[5] = target: HLA-A*68:02; assay: as above
[6] = target: HLA-A*02:01; assay: as above
[7] = source organism: Vaccinia virus WR
[8] = source organism: Mammarenavirus choriomeningitidis
[9] = source organism: Influenza A virus
[10] = source organism: Mammarenavirus brazilense
[11] = source organism: Mammarenavirus machupoense
[12] = source organism: Mammarenavirus juninense
[13] = source organism: Hepacivirus hominis

| Sequence | IC50 [1, 7] [nM] | IC50 [2, 7] [nM] | IC50 [3, 7] [nM] | IC50 [4, 7] [nM] | IC50 [5, 7] [nM] | IC50 [6, 7] [nM] | other results |
| --- | --- | --- | --- | --- | --- | --- | --- |
| ITRLEVIGLT | 6470 | 2210 | 219 | 967 | 1180 |  |  |
| LVKESMASL | 14300 | 1120 | 9.5 | 136 | 2070 |  |  |
| LTGTFVTAFI | 5050 | 672 | 596 | 413 | 109 |  |  |
| FVNFNSVKNL | 8720 | 2020 | 318 | 2200 | 121 |  |  |
| NASKTINALV | 8460 | 765 | 274 | 3220 | 21 |  |  |
| YIESKAKQL | 9620 | 144 | 439 | 2990 | 1340 |  |  |
| ALMDCIIFES |  |  |  |  |  |  | IC50 [1, 8]: 6230 nM; IC50 [2, 8]: 2.1 nM; IC50 [3, 8]: 16 nM; IC50 [4, 8]: 13 nM; IC50 [5, 8]: 507 nM |
| YAGTIKESLL | 21900 | 1020 | 4040 | 1760 | 1910 |  |  |
| ELIDVLKTRL | 5430 | 262 | 118 | 1990 | 1420 |  |  |
| AVKFAEESYT | 7830 | 1760 | 1470 | 2260 | 2290 |  |  |
| RQDYRRSINV | 10200 | 1010 | 375 | 2220 | 3970 |  |  |
| NITTLLNETA | 5680 | 218 | 106 | 1130 | 1720 |  |  |
| SIRCVKYLL | 7820 | 107 | 56 | 2880 | 244 |  |  |
| PLHIVCSKT | 7940 | 997 | 2150 | 3890 | 1880 |  |  |
| STFNMWREIL | 6000 | 3120 | 907 | 3360 | 67 |  |  |
| ATAGLTHMMI |  |  |  |  |  |  | IC50 [1, 9]: 12100 nM; IC50 [2, 9]: 636 nM; IC50 [3, 9]: 1060 nM; IC50 [4, 9]: 2200 nM; IC50 [5, 9]: 138 nM |
| LVFNSISARA | 15900 | 1270 | 254 | 702 | 168 |  |  |
| ELAYYNSCML | 12500 | 1870 | 151 | 3570 | 650 |  |  |
| ILKDPRIASI | 5030 | 3160 | 1030 | 4000 | 4520 |  |  |
| EATFIDVHI | 10700 | 1660 | 862 | 3430 | 0.13 |  |  |
| LVAEHRFENM | ≥ 70000 | 2050 | 462 | 723 | 1400 |  |  |
| TTNNLLEQL | 40600 | 122 | 1420 | 3040 | 48 |  |  |
| KTVKNVDII | 8730 | 607 | 1790 | 698 | 1160 |  |  |

| Sequence | IC50 [1, 7] [nM] | IC50 [2, 7] [nM] | IC50 [3, 7] [nM] | IC50 [4, 7] [nM] | IC50 [5, 7] [nM] | IC50 [6, 7] [nM] | other results |
| --- | --- | --- | --- | --- | --- | --- | --- |
| LSNCVHPAV |  |  |  |  |  |  | IC50 [1, 10]: 12200 nM; IC50 [2, 10]: 427 nM; IC50 [3, 10]: 1100 nM; IC50 [4, 10]: 461 nM; IC50 [5, 10]: 682 nM |
| NITTLLNET | 39200 | 1300 | 2900 | 2310 | 1540 |  |  |
| IVFGIYKDNL | 5460 | 187 | 792 | 48 | 628 |  |  |
| NMINKLYGYA |  | 1.6 | 0.44 | 137 | 292 | 88 |  |
| NVSRVVECL |  | 133 | 938 | 1030 | 28 | 4110 |  |
| ALNIALVAV |  |  |  |  |  |  | IC50 [6, 11]: 79 nM; IC50 [2, 11]: 15 nM; IC50 [3, 11]: 4.5 nM; IC50 [4, 11]: 371 nM; IC50 [5, 11]: 3340 nM |
| YLGIFKNNDV |  | 15 | 17 | 285 | 696 | 16 |  |
| TIAVSVYGA |  | 25 | 9.9 | 99 | 32 | 104 |  |
| TLNTLITLIL |  | 150 | 7.1 | 826 | 1140 | 45 |  |
| YLGPRVCWL |  | 0.9 | 3.4 | 23 | 514 | 2.2 |  |
| ELAYYNSCM |  | 129 | 136 | 3580 | 278 | 4370 |  |
| MQIAILVTTV |  |  |  |  |  |  | IC50 [6, 9]: 79 nM; IC50 [2, 9]: 40 nM; IC50 [3, 9]: 6 nM; IC50 [4, 9]: 61 nM; IC50 [5, 9]: 129 nM |
| IVCIVAAVII |  | 1460 | 1590 | 3550 | 2980 | 1960 |  |
| KSGLFQFFV |  |  |  |  |  |  | IC50 [6, 12]: 17 nM; IC50 [2, 12]: 23 nM; IC50 [3, 12]: 1560 nM; IC50 [4, 12]: 8.1 nM; IC50 [5, 12]: 201 nM |
| YNAELLVLL |  |  |  |  |  |  | IC50 [6, 9]: 609 nM; IC50 [2, 9]: 118 nM; IC50 [3, 9]: 1790 nM; IC50 [4, 9]: 474 nM; IC50 [5, 9]: 44 nM |
| LAFVVFLLV |  |  |  |  |  |  | IC50 ([6]; source organism: SARS-CoV1): 610 nM; IC50 ([2]; source organism: SARS-CoV1): 458 nM; IC50 ([3]; source organism: SARS-CoV1): 1270 nM; IC50 ([4]; source organism: SARS-CoV1): 253 nM; IC50 ([5]; source organism: SARS-CoV1): 1000 nM |
| SMYGKAFNHA |  | 6.6 | 0.93 | 4 | 163 | 9.7 |  |
| QLMCQPILL |  |  |  |  |  |  | IC50 ([6]; source organism: SARS-CoV1): 0.96 nM; IC50 ([2]; source organism: SARS-CoV1): 3 nM; IC50 ([3]; source organism: SARS-CoV1): 12 nM; IC50 ([4]; source organism: SARS-CoV1): 77 nM; IC50 ([5]; source organism: SARS-CoV1): 140 nM |
| MLLNVQTLI |  | 0.17 | 0.25 | 0.22 | 216 | 2.9 |  |
| SLVITYCLVT |  | 286 | 566 | 824 | 447 | 373 |  |
| NMLDDFSAGA |  | 308 | 161 | 242 | 2600 | 190 |  |
| FVTDYVHEGV |  | 24 | 1.7 | 11 | 1.6 | 48 |  |
| SLTTIGTIA |  | 1 | 3.7 | 489 | 323 | 133 |  |

| Sequence | IC50 [1, 7] [nM] | IC50 [2, 7] [nM] | IC50 [3, 7] [nM] | IC50 [4, 7] [nM] | IC50 [5, 7] [nM] | IC50 [6, 7] [nM] | other results |
| --- | --- | --- | --- | --- | --- | --- | --- |
| NVISKIYTLI |  | 0.99 | 33 | 196 | 67 | 329 |  |
| VLMTHFFSVL |  |  |  |  |  |  | IC50 [6, 13]: 114 nM; IC50 [2, 13]: 62 nM; IC50 [3, 13]: 21 nM; IC50 [4, 13]: 112 nM; IC50 [5, 13]: 4690 nM |
| YIMRVMANNV |  | 23 | 2 | 14 | 42 | 49 |  |
| SVDVDIYDAV |  | 0.43 | 9.2 | 3.3 | 0.25 | 153 |  |
| NLFEKFFPSS |  |  |  |  |  |  | IC50 [6, 9]: 271 nM; IC50 [2, 9]: 415 nM; IC50 [3, 9]: 362 nM; IC50 [4, 9]: 28 nM; IC50 [5, 9]: 360 nM |
| NIGCAVNTPV |  | 126 | 30 | 176 | 11 | 23 |  |
| TIDAINKCV |  | 90 | 634 | 406 | 222 | 783 |  |
| RLPSETFPNV |  | 173 | 14 | 0.58 | 91 | 0.11 |  |
| FICNLLLLFV |  |  |  |  |  |  | IC50 ([6]; source organism: SARS-CoV1): 2.1 nM; IC50 ([2]; source organism: SARS-CoV1): 2.5 nM; IC50 ([3]; source organism: SARS-CoV1): 15 nM; IC50 ([4]; source organism: SARS-CoV1): 4 nM; IC50 ([5]; source organism: SARS-CoV1): 1070 nM |
| ETIEILRNYL |  | 474 | 1410 | 0.28 | 0.13 | 944 |  |
| RVFKKIMSI |  | 350 | 0.18 | 75 | 170 | 80 |  |
| ILLILSCIFA |  | 448 | 307 | 492 | 2750 | 21 |  |
| KIYTLIYRQL |  | 707 | 1030 | 912 | 4670 | 4020 |  |
| QMLSVVGFLV |  |  |  |  |  |  | IC50 ([6]; source organism: SARS-CoV1): 7.5 nM; IC50 ([2]; source organism: SARS-CoV1): 1.2 nM; IC50 ([3]; source organism: SARS-CoV1): 6 nM; IC50 ([4]; source organism: SARS-CoV1): 14 nM; IC50 ([5]; source organism: SARS-CoV1): 206 nM |
| MQKFTILEYL |  | 164 | 279 | 909 | 3730 | 3730 |  |
| LVMDKNHAI |  | 19 | 770 | 103 | 10 | 327 |  |
| MIIGEPIIVA |  | 42 | 111 | 124 | 280 | 44 |  |
| VVFLHVTYV |  |  |  |  |  |  | IC50 ([6]; source organism: SARS-CoV1): 3.9 nM; IC50 ([2]; source organism: SARS-CoV1): 7.8 nM; IC50 ([3]; source organism: SARS-CoV1): 0.28 nM; IC50 ([4]; source organism: SARS-CoV1): 3.9 nM; IC50 ([5]; source organism: SARS-CoV1): 1 nM |
| KASTISWMM |  | 429 | 556 | 797 | 2940 | 1410 |  |
| LLFNKVTLA |  |  |  |  |  |  | IC50 ([6]; source organism: SARS-CoV1): 5 nM; IC50 ([2]; source organism: SARS-CoV1): 0.95 nM; IC50 ([3]; source organism: SARS-CoV1): 1.1 nM; IC50 ([4]; source organism: SARS-CoV1): 9 nM; IC50 ([5]; source organism: SARS-CoV1): 288 nM |
| SMMSFSAAL |  |  |  |  |  |  | IC50 [6, 13]: 13 nM; IC50 [2, 13]: 5.1 nM; IC50 [3, 13]: 15 nM; IC50 [4, 13]: 106 nM; IC50 [5, 13]: 493 nM |
| GLSDRVVFV |  |  |  |  |  |  | IC50 ([6]; source organism: SARS-CoV1): 3.1 nM; IC50 ([2]; source organism: SARS-CoV1): 1 nM; IC50 ([3]; source organism: SARS-CoV1): 1.1 nM; IC50 ([4]; source organism: SARS-CoV1): 69 nM; IC50 ([5]; source organism: SARS-CoV1): 1170 nM |
